# ± gives the uncertainty stated by the source.
# B1: POU domain, class 3, transcription factor 2, residues 262 to 338; numbered along this chain, P20265 (parent)
# chain: EDTPTSDDLEQFAKQFKQRRIKLGFTQADVGLALGTLYGNVFSQTTICRFEALQLSFKNMCKLKPLLNKWLEEADSS
# Variants of: B1
# Assay: abundance fitness (aPCA) (normalised: wild type 0, dead -1); higher = more abundant; growth selection in yeast, the domain comes from the species named
# Details: Homo sapiens
row,Variant,abundance fitness
1,Q27N,-0.419 ± 0.096
2,G39C,-0.528 ± 0.069
3,S56I,-0.662 ± 0.14
4,L67V,-0.525 ± 0.099
5,G31H,-0.287 ± 0.084
6,E73N,-0.192 ± 0.34
7,T45E,0.143 ± 0.035
8,E72I,-0.102 ± 0.058
9,K17F,-0.9 ± 0.2
10,D75R,-0.058 ± 0.028
11,V30I,-0.235 ± 0.15
12,Q27H,0.02 ± 0.063
13,K14C,-0.136 ± 0.11
14,I21Y,-0.489 ± 0.088
15,V30A,-0.23 ± 0.046
16,F57N,0.031 ± 0.063
17,L9I,0.074 ± 0.047
18,G31Q,-0.188 ± 0.054
19,S76N,0.013 ± 0.05
20,F12W,-0.27 ± 0.18
21,R20D,-1.05 ± 0.24
22,L23K,-0.332 ± 0.052
23,A13I,-0.12 ± 0.061
24,L71F,-0.699 ± 0.22

row,Variant,abundance fitness
1,K62C,-0.25 ± 0.053
2,S56T,-0.135 ± 0.041
3,T36W,-0.33 ± 0.046
4,N68G,0.074 ± 0.065
5,R49F,-0.694 ± 0.18
6,V41G,0.021 ± 0.029
7,I47N,-0.798 ± 0.23
8,L53A,0.016 ± 0.034
9,T26G,-0.449 ± 0.036
10,K58C,-0.321 ± 0.096
11,F50S,-0.821 ± 0.075
12,S43V,-0.703 ± 0.056
13,Q18T,-0.029 ± 0.051
14,G31P,-0.648 ± 0.076
15,L23A,-0.188 ± 0.033
16,I21E,-0.004 ± 0.037
17,A33T,-0.113 ± 0.068
18,F57E,-0.071 ± 0.034
19,A52Y,-0.534 ± 0.17
20,W70F,-0.111 ± 0.068
21,N40F,-0.173 ± 0.08
22,S76Q,0.055 ± 0.047
23,S76T,-0.019 ± 0.043
24,T36N,0.052 ± 0.066

row,Variant,abundance fitness
1,N59F,-0.014 ± 0.086
2,L9G,-0.605 ± 0.05
3,V30P,-0.569 ± 0.091
4,Q44S,0.008 ± 0.035
5,Y38K,-0.234 ± 0.05
6,I47Y,-0.339 ± 0.13
7,N40A,-0.055 ± 0.038
8,A74T,-0.026 ± 0.05
9,D2H,0.015 ± 0.051
10,T45L,-0.127 ± 0.033
11,Q18S,-0.018 ± 0.037
12,S56A,-0.345 ± 0.043
13,F57P,-0.063 ± 0.046
14,L66P,-0.437 ± 0.064
15,R19E,-0.116 ± 0.039
16,K58L,-0.163 ± 0.042
17,R19F,-0.439 ± 0.09
18,F50T,-0.682 ± 0.076
19,K22E,0.057 ± 0.035
20,C48E,0.085 ± 0.035
21,D8Q,0.055 ± 0.054
22,K22L,-0.04 ± 0.035
23,G24E,-0.641 ± 0.058
24,L71I,-0.422 ± 0.37

row,Variant,abundance fitness
1,S6E,-0.038 ± 0.032
2,T45C,-0.163 ± 0.047
3,D75I,-0.089 ± 0.092
4,E10C,-0.01 ± 0.05
5,L55V,-0.573 ± 0.039
6,K14S,-0.073 ± 0.051
7,G31N,-0.44 ± 0.1
8,L63G,-0.796 ± 0.041
9,F25M,-0.107 ± 0.046
10,C61R,-0.025 ± 0.028
11,K64G,-0.449 ± 0.037
12,T45K,0.053 ± 0.038
13,Y38W,-0.341 ± 0.044
14,D7P,-0.143 ± 0.3
15,F57W,-0.169 ± 0.031
16,L34N,-0.796 ± 0.15
17,E73F,-0.057 ± 0.14
18,G39D,-0.079 ± 0.053
19,S56R,-0.366 ± 0.034
20,I21S,-0.337 ± 0.04
21,Q11V,-0.015 ± 0.028
22,A28V,-0.204 ± 0.033
23,S6G,-0.05 ± 0.025
24,F50V,-0.682 ± 0.049

row,Variant,abundance fitness
1,K69F,-0.234 ± 0.14
2,L32S,-0.197 ± 0.14
3,I47R,-0.689 ± 0.05
4,F42R,-0.292 ± 0.032
5,L66C,-0.239 ± 0.05
6,K17Q,-0.025 ± 0.039
7,M60V,-0.553 ± 0.043
8,K22D,0.041 ± 0.047
9,Q11Y,-0.024 ± 0.063
10,K14Q,0.075 ± 0.098
11,E51G,-0.818 ± 0.058
12,N40Q,0.069 ± 0.043
13,T36M,-0.11 ± 0.042
14,V41N,0.008 ± 0.079
15,T45N,-0.08 ± 0.064
16,A13C,-0.156 ± 0.048
17,R20W,-0.909 ± 0.096
18,L63I,-0.148 ± 0.073
19,E10Y,0.054 ± 0.05
20,S56M,-0.81 ± 0.15
21,E72S,-0.13 ± 0.038
22,D75L,-0.133 ± 0.034
23,L34F,-0.732 ± 0.17
24,F12M,-0.223 ± 0.14

row,Variant,abundance fitness
1,R20L,-0.766 ± 0.066
2,D75W,-0.085 ± 0.034
3,M60S,-0.377 ± 0.055
4,D29A,-0.205 ± 0.035
5,F50I,-0.675 ± 0.12
6,K17H,-0.343 ± 0.067
7,R49C,-0.691 ± 0.1
8,N68C,-0.096 ± 0.13
9,V30G,-0.776 ± 0.089
10,L66F,-0.05 ± 0.048
11,S43H,0.007 ± 0.075
12,K22N,-0.117 ± 0.077
13,A52F,-0.844 ± 0.46
14,L63H,-0.451 ± 0.11
15,S6T,0.099 ± 0.038
16,Q11A,0.016 ± 0.038
17,N59D,0.105 ± 0.06
18,K64I,-0.246 ± 0.083
19,D75P,-0.106 ± 0.049
20,K17N,-0.895 ± 0.22
21,G24L,-0.789 ± 0.048
22,L34T,-0.742 ± 0.1
23,T45G,-0.097 ± 0.026
24,G35I,-0.367 ± 0.1

row,Variant,abundance fitness
1,P4V,0.061 ± 0.034
2,K62W,-0.172 ± 0.038
3,L34E,-1.01 ± 0.15
4,D75Y,-0.046 ± 0.056
5,F57G,-0.246 ± 0.028
6,E73I,-0.009 ± 0.12
7,K69A,-0.094 ± 0.07
8,T26K,-0.399 ± 0.063
9,L55N,-0.633 ± 0.16
10,L53F,-0.09 ± 0.061
11,L66Y,-0.22 ± 0.081
12,Q44A,0.033 ± 0.031
13,I21V,-0.058 ± 0.031
14,G31T,-0.096 ± 0.048
15,K17I,-0.349 ± 0.072
16,S56E,-0.128 ± 0.043
17,G24T,-0.914 ± 0.081
18,N59R,0.059 ± 0.029
19,Q15Y,0.092 ± 0.076
20,K14M,-0.082 ± 0.093
21,L66I,-0.071 ± 0.063
22,T5V,-0.108 ± 0.031
23,Q11L,-0.04 ± 0.034

# From the Human Domainome abundance scans (Beltran et al. 2025)
